The source of these data is paper PMC11782662, “Phase separation of a microtubule plus-end tracking protein into a fluid fractal network” (Nature Communications, 2025).

The series concerns the molecule itself. Briefly: SEC-SAXS; Shodex KW-404 column in line with SAXS; 20 mM Tris-HCl, pH 7.5, 500 mM NaCl, 2% glycerol, 1 mM DTT; injected at 4, 6 and 8 mg/ml; ab initio envelopes (DAMMIF). (In gel filtration, larger molecules generally elute earlier.)

B1: N-terminally His-tagged, full-length Bik1 (natural protein, S. cerevisiae, UniProt P11709 1-440, looked up)
chain: MDRYQRKIGCFIQIPNLGRGQLKYVGPVDTKAGMFAGVDLLANIGKNDGSFMGKKYFQTEYPQSGLFIQLQKVASLIEKASISQTSRRTTMEPLSIPKNRSIVRLTNQFSPMDDPKSPTPMRSFRITSRHSGNQQSMDQEASDHHQQQEFGYDNREDRMEVDSILSSDRKANHNTTSDWKPDNGHMNDLNSSEVTIELREAQLTIEKLQRKQLHYKRLLDDQRMVLEEVQPTFDRYEATIQEREKEIDHLKQQLELERRQQAKQKQFFDAENEQLLAVVSQLHEEIKENEERNLSHNQPTGANEDVELLKKQLEQLRNIEDQFELHKTKWAKEREQLKMHNDSLSKEYQNLSKELFLTKPQDSSSEEVASLTKKLEEANEKIKQLEQAQAQTAVESLPIFDPPAPVDTTAGRQQWCEHCDTMGHNTAECPHHNPDNQQFF
notes: Bik1, S. cerevisiae, UniProt P11709, full length (domains described over residues 1-440); Vector PSPCm2: N-terminal 6xHis-tag followed by a PreScission cleavage site; also called Bik1 FL; FL; source: E. coli BL21-CodonPlus (DE3)-RIPL, purified (IMAC, SEC); not shown: His6, N-terminal, kept
As to B1, the “stoichiometry N” value came out at 2.

B2: Bik1 ΔQQFF (domain or fragment, S. cerevisiae, UniProt P11709 1-436, looked up)
chain: MDRYQRKIGCFIQIPNLGRGQLKYVGPVDTKAGMFAGVDLLANIGKNDGSFMGKKYFQTEYPQSGLFIQLQKVASLIEKASISQTSRRTTMEPLSIPKNRSIVRLTNQFSPMDDPKSPTPMRSFRITSRHSGNQQSMDQEASDHHQQQEFGYDNREDRMEVDSILSSDRKANHNTTSDWKPDNGHMNDLNSSEVTIELREAQLTIEKLQRKQLHYKRLLDDQRMVLEEVQPTFDRYEATIQEREKEIDHLKQQLELERRQQAKQKQFFDAENEQLLAVVSQLHEEIKENEERNLSHNQPTGANEDVELLKKQLEQLRNIEDQFELHKTKWAKEREQLKMHNDSLSKEYQNLSKELFLTKPQDSSSEEVASLTKKLEEANEKIKQLEQAQAQTAVESLPIFDPPAPVDTTAGRQQWCEHCDTMGHNTAECPHHNPDN
notes: Bik1, S. cerevisiae, UniProt P11709, lacking the C-terminal EEY/F-like motif (peptide Gln-Gln-Phe-Phe); N-terminal 6xHis-tag followed by a PreScission site, tag retained; source: E. coli BL21-CodonPlus (DE3)-RIPL, purified (IMAC, SEC); not shown: His6, N-terminal, kept
On to B2, for which the binding result was “binds”.

One may read the stoichiometry N as a count of units in the complex or per binding partner.
